Target: T1, Sorting nexin 4 (SNX4), endogenous (human (endogenous in HEK293), UniProt O95219 1-450)
T1 construct: SNX4, endogenous in HEK293 cells, precipitated with anti-SNX4 (E-18); source: endogenous, HEK293 lysate
T1 sequence (looked up): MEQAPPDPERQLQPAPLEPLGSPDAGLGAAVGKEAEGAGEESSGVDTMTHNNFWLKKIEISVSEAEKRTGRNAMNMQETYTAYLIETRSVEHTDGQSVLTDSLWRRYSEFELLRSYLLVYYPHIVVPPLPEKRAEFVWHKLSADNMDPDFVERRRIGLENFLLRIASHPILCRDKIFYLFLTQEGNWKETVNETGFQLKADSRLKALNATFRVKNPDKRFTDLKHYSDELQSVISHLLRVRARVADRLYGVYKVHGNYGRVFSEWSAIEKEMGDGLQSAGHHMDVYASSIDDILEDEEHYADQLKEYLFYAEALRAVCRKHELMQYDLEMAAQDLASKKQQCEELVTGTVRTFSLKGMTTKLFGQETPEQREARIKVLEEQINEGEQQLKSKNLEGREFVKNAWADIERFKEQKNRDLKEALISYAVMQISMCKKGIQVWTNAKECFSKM
Assay: co-IP; anti-SNX4 (E-18) on Protein A Sepharose, HEK293 lysate (0.1 M NaCl, 10 mM Na2HPO4 pH 7.4, 1 mM EDTA, 1% Triton X-100), overnight at 4°C, Western blot; cells untreated, or transfected with control, SNX4 or CHC siRNA, or treated with nocodazole for 30 min
Conditions: partners not purified

B1: clathrin heavy chain (CHC), endogenous (natural protein, human (endogenous in HEK293), UniProt Q00610 1-1675, looked up)
chain: MAQILPIRFQEHLQLQNLGINPANIGFSTLTMESDKFICIREKVGEQAQVVIIDMNDPSNPIRRPISADSAIMNPASKVIALKAGKTLQIFNIEMKSKMKAHTMTDDVTFWKWISLNTVALVTDNAVYHWSMEGESQPVKMFDRHSSLAGCQIINYRTDAKQKWLLLTGISAQQNRVVGAMQLYSVDRKVSQPIEGHAASFAQFKMEGNAEESTLFCFAVRGQAGGKLHIIEVGTPPTGNQPFPKKAVDVFFPPEAQNDFPVAMQISEKHDVVFLITKYGYIHLYDLETGTCIYMNRISGETIFVTAPHEATAGIIGVNRKGQVLSVCVEEENIIPYITNVLQNPDLALRMAVRNNLAGAEELFARKFNALFAQGNYSEAAKVAANAPKGILRTPDTIRRFQSVPAQPGQTSPLLQYFGILLDQGQLNKYESLELCRPVLQQGRKQLLEKWLKEDKLECSEELGDLVKSVDPTLALSVYLRANVPNKVIQCFAETGQVQKIVLYAKKVGYTPDWIFLLRNVMRISPDQGQQFAQMLVQDEEPLADITQIVDVFMEYNLIQQCTAFLLDALKNNRPSEGPLQTRLLEMNLMHAPQVADAILGNQMFTHYDRAHIAQLCEKAGLLQRALEHFTDLYDIKRAVVHTHLLNPEWLVNYFGSLSVEDSLECLRAMLSANIRQNLQICVQVASKYHEQLSTQSLIELFESFKSFEGLFYFLGSIVNFSQDPDVHFKYIQAACKTGQIKEVERICRESNCYDPERVKNFLKEAKLTDQLPLIIVCDRFDFVHDLVLYLYRNNLQKYIEIYVQKVNPSRLPVVIGGLLDVDCSEDVIKNLILVVRGQFSTDELVAEVEKRNRLKLLLPWLEARIHEGCEEPATHNALAKIYIDSNNNPERFLRENPYYDSRVVGKYCEKRDPHLACVAYERGQCDLELINVCNENSLFKSLSRYLVRRKDPELWGSVLLESNPYRRPLIDQVVQTALSETQDPEEVSVTVKAFMTADLPNELIELLEKIVLDNSVFSEHRNLQNLLILTAIKADRTRVMEYINRLDNYDAPDIANIAISNELFEEAFAIFRKFDVNTSAVQVLIEHIGNLDRAYEFAERCNEPAVWSQLAKAQLQKGMVKEAIDSYIKADDPSSYMEVVQAANTSGNWEELVKYLQMARKKARESYVETELIFALAKTNRLAELEEFINGPNNAHIQQVGDRCYDEKMYDAAKLLYNNVSNFGRLASTLVHLGEYQAAVDGARKANSTRTWKEVCFACVDGKEFRLAQMCGLHIVVHADELEELINYYQDRGYFEELITMLEAALGLERAHMGMFTELAILYSKFKPQKMREHLELFWSRVNIPKVLRAAEQAHLWAELVFLYDKYEEYDNAIITMMNHPTDAWKEGQFKDIITKVANVELYYRAIQFYLEFKPLLLNDLLMVLSPRLDHTRAVNYFSKVKQLPLVKPYLRSVQNHNNKSVNESLNNLFITEEDYQALRTSIDAYDNFDNISLAQRLEKHELIEFRRIAAYLFKGNNRWKQSVELCKKDSLYKDAMQYASESKDTELAEELLQWFLQEEKRECFGACLFTCYDLLRPDVVLETAWRHNIMDFAMPYFIQVMKEYLTKVDKLDASESLRKEEEQATETQPIVYGQPQLMLTAGPSVAVPPQAPFGYGYTAPPYGQPQPGFGYSM
notes: clathrin heavy chain, endogenous in HEK293 cells, detected with anti-CHC; source: endogenous, HEK293 lysate
  fold change of CHC binding to SNX4, nocodazole-treated against untreated cells: 2.3 fold

From publication PMC2691479, “SNX4 in Complex with Clathrin and Dynein: Implications for Endosome Movement” (PLoS ONE, 2009)
